Assay results published in patent US20250066499A1 (SUNSHINE GUOJIAN PHARMACEUTICAL SHANGHAI, published 2025).
Where a chain is given by its changes, count along the chain named.

What was measured:
Assay in all cases: ELISA, high plateau value (OD 450 nm)
CD73-ND-T183A = target: T1, CD73-ND-T183A (human, UniProt P21589 27-317)
T1 construct: Alanine mutant of CD73-ND
T1 sequence: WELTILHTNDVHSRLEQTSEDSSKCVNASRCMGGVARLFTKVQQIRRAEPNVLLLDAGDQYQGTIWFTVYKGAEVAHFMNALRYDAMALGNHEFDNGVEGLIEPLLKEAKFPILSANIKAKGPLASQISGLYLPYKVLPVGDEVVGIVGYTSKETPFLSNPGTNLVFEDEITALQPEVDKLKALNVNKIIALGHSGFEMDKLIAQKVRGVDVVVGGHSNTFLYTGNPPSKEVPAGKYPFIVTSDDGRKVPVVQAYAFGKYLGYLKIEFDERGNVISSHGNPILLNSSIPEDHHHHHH
Protocol: (§1) The ELISA plates were coated with SA protein diluted to 1.5 μg/mL in coating buffer (50 mM carbonate coating buffer, pH 9.6) and incubated overnight at 4° C. The supernatant was discarded, and the plates were washed three times with PBST. Then, 5% skimmed milk powder prepared with PBS was added for blocking and the plates were incubated for 2 h at 37° C. After washing the plates once with PBST, CD73-biotin protein (prepared by biotinylating CD73-His protein according to the EZ-Link NHS-Biotin Reagent instructions) was diluted to 0.5 μg/mL and added at 100 μL/well for incubation at room temperature for 1 h. The plates were washed three times with PBST, and the prepared murine-derived monoclonal antibodies against human CD73 were serially diluted with 1% BSA buffer prepared with PBST and added to the ELISA plates at 100 μl/well. The plates were incubated at 37° C. for 1 h. After washing the plates three times with PBST, HRP-labeled goat anti-mouse IgG secondary antibody was added and the plates were incubated for 30 min at 37° C. After washing the plates three times with PBST, the residual droplets were patted dry on absorbent paper as much as possible. Then, 100 μl of TMB color developing solution was added to each well, and the plates were incubated in the dark at room temperature for 5 min for color development. Subsequently, 50 μl of 2M H₂SO₄ stop solution was added to each well to terminate the substrate reaction. The OD values were read at 450 nm using a multimode microplate reader to analyze the binding ability of the tested antibodies to the target antigen human CD73-His.
(§2) Referring to the experimental method in Example 3, the affinity of 48A11-HuV33 for various mutant proteins of CD73-ND was determined. The SA protein was diluted to 1 μg/mL for coating the ELISA plates, and the biotinylated CD73 protein (CD73-biotin) was used at a concentration of 0.1 μg/mL.

CD73-ND-his = target: T2, CD73-ND-his (human, UniProt P21589 27-317)
T2 construct: Biotinylated and captured on streptavidin in the ELISA
T2 sequence: T1 sequence with A183T
Protocol: as §1, §2

CD73-ND-Y135A = target: T3, CD73-ND-Y135A (human, UniProt P21589 27-317)
T3 construct: Alanine mutant of CD73-ND
T3 sequence: T1 sequence with Y135A, A183T
Protocol: as §1, §2

CD73-ND-L133A = target: T4, CD73-ND-L133A (human, UniProt P21589 27-317)
T4 construct: Alanine mutant of CD73-ND
T4 sequence: T1 sequence with L133A, A183T
Protocol: as §1, §2

CD73-ND-V137A = target: T5, CD73-ND-V137A (human, UniProt P21589 27-317)
T5 construct: Alanine mutant of CD73-ND
T5 sequence: T1 sequence with V137A, A183T
Protocol: as §1, §2

CD73-ND-K136A = target: T6, CD73-ND-K136A (human, UniProt P21589 27-317)
T6 construct: Alanine mutant of CD73-ND
T6 sequence: T1 sequence with K136A, A183T
Protocol: as §1, §2

B1: 48A11-HuV33 (antibody, human IgG4, V domains shown)
VH: QVQLVQSGAEVKKPGASVKVSCKASGYTFTSYWMHWVRQAPGQGLEWIGEINPSIGRTNYNEKFKSRVTLTRDTSTSTAYMELSSLRSEDTAVYYCARRVYGTMDYWGQGTLVTVSS
VL: DIQMTQSPSSLSASVGDRVTITCKASQDINSYLSWFQQKPGKSPKLLIYRANIWVDGVPSRFSGSGSGQDYTFTISSLQPEDIATYYCLQYDELYTFGQGTKVEIK
notes: Humanized
Top (CD73-ND-T183A): 1.98
Top (CD73-ND-his): 1.98
Top (CD73-ND-Y135A): 1.96
Top (CD73-ND-L133A): 0.922
Top (CD73-ND-V137A): 1.6
Top (CD73-ND-K136A): 2.12
